B1: full-length human 14-3-3γ fused to the C terminus of MBP (natural protein)
chain: MVDREQLVQKARLAEQAERYDDMAAAMKNVTELNEPLSNEERNLLSVAYKNVVGARRSSWRVISSIEQKTSADGNEKKIEMVRAYREKIEKELEAVCQDVLSLLDNYLIKNCSETQYESKVFYLKMKGDYYRYLAEVATGEKRATVVESSEKAYSEAHEISKEHMQPTHPIRLGLALNYSVFYYEIQNAPEQACHLAKTAFDDAIAELDTLNEDSYKDSTLIMQLLRDNLTLWTSDQQDDDGGEGNN

Experiment [1] deals with T1, HPV33 E6 phospho-PBM peptide p33E6 (human papillomavirus type 33). Description: FP.
Experiment [2] concerns the target T2, HPV35 E6 phospho-PBM peptide p35E6 (human papillomavirus type 35). In words: FP.
Experiment [3] deals with T2, HPV35 E6 phospho-PBM peptide p35E6. In words: FP. This is another data set of the same source.
The target in experiment [4] is T1, HPV33 E6 phospho-PBM peptide p33E6. In words: FP; +FSC.
Experiment [5] deals with T2, HPV35 E6 phospho-PBM peptide p35E6. Description: FP; +FSC.
The target of experiment [6] is T1, HPV33 E6 phospho-PBM peptide p33E6. In words: FP; with FSC.
Experiment [7] deals with T3, full-length human 14-3-3σ fused to the C terminus of MBP (human, UniProt P31947 1-248).
T3 chain: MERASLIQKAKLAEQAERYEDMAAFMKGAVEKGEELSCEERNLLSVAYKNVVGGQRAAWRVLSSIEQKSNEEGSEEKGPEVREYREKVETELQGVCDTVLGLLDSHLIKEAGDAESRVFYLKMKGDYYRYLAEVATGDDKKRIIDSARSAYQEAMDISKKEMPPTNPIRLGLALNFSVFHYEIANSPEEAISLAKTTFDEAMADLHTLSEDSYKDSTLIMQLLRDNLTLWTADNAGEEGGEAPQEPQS
Description: FP.

The target in experiment [8] is T4, full-length human 14-3-3η fused to the C terminus of MBP (human, UniProt Q04917 1-246).
T4 chain: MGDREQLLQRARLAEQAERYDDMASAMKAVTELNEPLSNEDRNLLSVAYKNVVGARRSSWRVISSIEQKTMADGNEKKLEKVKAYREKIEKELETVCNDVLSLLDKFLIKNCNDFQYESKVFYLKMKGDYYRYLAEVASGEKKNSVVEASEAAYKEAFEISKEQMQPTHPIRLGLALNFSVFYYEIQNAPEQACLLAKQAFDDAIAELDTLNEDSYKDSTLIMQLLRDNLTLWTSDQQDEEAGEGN
Description: FP.

Experiment [9] deals with B1. Description: FP.
Experiment [10] addresses T5, full-length human 14-3-3β fused to the C terminus of MBP (human, UniProt P31946 1-246).
T5 chain: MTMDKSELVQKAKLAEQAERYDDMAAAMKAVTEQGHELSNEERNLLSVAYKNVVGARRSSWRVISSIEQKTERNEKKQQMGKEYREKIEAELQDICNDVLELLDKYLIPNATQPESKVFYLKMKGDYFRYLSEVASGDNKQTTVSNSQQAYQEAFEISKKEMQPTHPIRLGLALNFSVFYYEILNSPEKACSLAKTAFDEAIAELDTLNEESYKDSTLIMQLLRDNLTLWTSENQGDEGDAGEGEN
In words: FP.

For experiment [11], the target named is T6, full-length human 14-3-3τ fused to the C terminus of MBP (human, UniProt P27348 1-245).
T6 chain: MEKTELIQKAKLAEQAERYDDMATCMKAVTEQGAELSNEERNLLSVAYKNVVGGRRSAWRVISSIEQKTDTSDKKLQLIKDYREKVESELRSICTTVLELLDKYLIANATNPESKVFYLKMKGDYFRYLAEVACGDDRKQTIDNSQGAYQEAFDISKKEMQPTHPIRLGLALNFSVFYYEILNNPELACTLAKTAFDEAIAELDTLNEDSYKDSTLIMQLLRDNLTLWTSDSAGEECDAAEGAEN
Description: FP.

In experiment [12] the target is T7, full-length human 14-3-3ε fused to the C terminus of MBP (human, UniProt P62258 1-255).
T7 chain: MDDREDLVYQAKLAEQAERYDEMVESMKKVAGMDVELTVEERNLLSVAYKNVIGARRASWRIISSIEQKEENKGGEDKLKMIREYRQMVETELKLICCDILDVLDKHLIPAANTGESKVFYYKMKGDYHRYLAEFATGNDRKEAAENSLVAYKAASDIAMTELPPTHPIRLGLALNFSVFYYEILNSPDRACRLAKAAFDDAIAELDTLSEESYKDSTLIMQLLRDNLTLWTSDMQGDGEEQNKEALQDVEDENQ
In words: FP.

Experiment [13] concerns the target T8, full-length human 14-3-3ζ fused to the C terminus of MBP (human, UniProt P63104 1-245).
T8 chain: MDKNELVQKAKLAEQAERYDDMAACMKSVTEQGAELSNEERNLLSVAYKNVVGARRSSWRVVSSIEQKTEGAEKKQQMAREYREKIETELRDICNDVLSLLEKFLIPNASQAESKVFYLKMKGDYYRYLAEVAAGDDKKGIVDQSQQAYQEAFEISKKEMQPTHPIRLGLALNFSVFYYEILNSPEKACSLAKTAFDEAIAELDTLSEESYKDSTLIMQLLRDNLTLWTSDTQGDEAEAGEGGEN
In words: FP.

The target in experiment [14] is T3, full-length human 14-3-3σ fused to the …. Description: FP.
Experiment [15] has as its target T4, full-length human 14-3-3η fused to the …. In words: FP.
Experiment [16] deals with B1. Description: FP.
Experiment [17] deals with T5, full-length human 14-3-3β fused to the …. In words: FP.
The target in experiment [18] is T6, full-length human 14-3-3τ fused to the …. In words: FP.
In experiment [19] the target is T7, full-length human 14-3-3ε fused to the …. Description: FP.
For experiment [20], the target named is T8, full-length human 14-3-3ζ fused to the …. Description: FP.
Experiment [21] addresses T9, unfused 14-3-3ε devoid of the flexible C-terminal tail (human).
T9 chain: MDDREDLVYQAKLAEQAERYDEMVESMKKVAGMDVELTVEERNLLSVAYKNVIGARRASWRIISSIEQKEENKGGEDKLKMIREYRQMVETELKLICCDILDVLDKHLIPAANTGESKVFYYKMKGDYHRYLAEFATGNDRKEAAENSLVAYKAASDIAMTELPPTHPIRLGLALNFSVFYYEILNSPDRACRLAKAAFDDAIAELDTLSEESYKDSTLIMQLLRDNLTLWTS
Description: FP.

Experiment [22] has as its target T10, unfused 14-3-3τ devoid of the flexible C-terminal tail (human).
T10 chain: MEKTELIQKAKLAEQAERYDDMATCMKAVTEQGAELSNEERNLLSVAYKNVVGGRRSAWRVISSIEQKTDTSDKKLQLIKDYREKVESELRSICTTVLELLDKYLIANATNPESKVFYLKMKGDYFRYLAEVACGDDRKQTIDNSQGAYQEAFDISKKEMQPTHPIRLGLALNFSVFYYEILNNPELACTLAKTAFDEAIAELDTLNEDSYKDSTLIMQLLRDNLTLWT
Description: FP.

For experiment [23], the target named is T11, unfused 14-3-3β devoid of the flexible C-terminal tail (human).
T11 chain: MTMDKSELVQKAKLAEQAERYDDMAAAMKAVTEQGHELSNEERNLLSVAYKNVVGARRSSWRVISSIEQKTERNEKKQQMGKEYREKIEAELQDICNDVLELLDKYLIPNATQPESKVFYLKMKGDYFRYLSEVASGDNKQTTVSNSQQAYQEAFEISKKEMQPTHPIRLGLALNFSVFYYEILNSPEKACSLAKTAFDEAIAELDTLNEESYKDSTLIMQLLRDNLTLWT
Description: FP.

Experiment [24] has as its target B1. Description: FP; with FSC.

Like-named read-outs stand apart in the source and are kept apart here. Non-standard residues stand in square brackets, D forms with d. No end group written: not given here. *: point of attachment. FITC = O=C1OC2(c3ccc(O)cc3Oc3cc(O)ccc32)c2ccc(NC(=S)*)cc21; Biotin = O=C1N[C@H]2[C@H](CS[C@H]2CCCCC(=O)*)N1; pT = C[C@@H](OP(=O)(O)O)[C@H](N)C(=O)O; ttds = NCCCOCCOCCOCCCNC(=O)CCC(=O)*; pS = N[C@@H](COP(=O)(O)O)C(=O)O

One may read the Kd as the concentration at which binding is half-saturated.

As for B1, the Kd amounted to 0.9 µM in experiment [1]; 125 µM in [2]; 125 µM in experiment [3]; 2.2 µM in experiment [4]; 228 µM in [5]; 2.15 µM in experiment [6].
On to {Biotin-ttds}-RRVRKLPST[pT]L [RSK1 phospho-PBM peptide RSK1_-1P], for which the dissociation constant Kd came out at 1.7 µM in [7]; 0.5 µM in experiment [8]; 0.3 µM in [9]; 0.7 µM in [10]; 0.8 µM in experiment [11]; 1.6 µM in experiment [12]. For the same molecule, the Kd in [13] was found to be 1 µM; in [14], 1.71 µM; in experiment [15] it was 0.46 µM; in experiment [16], 0.31 µM; in [17], 0.74 µM; in [18] it was 0.78 µM. The Kd is 1.58 µM in experiment [19] and 0.96 µM in experiment [20].
Turning to {Biotin-ttds}-RRVRKLPS[pT]TL [RSK1 phospho-PBM peptide RSK1_-2P], the Kd in experiment [7] is 3.6 µM; in experiment [8], 0.7 µM; in [9] it was 0.2 µM; in experiment [10], 1 µM; in experiment [11], 0.5 µM; in experiment [12], 1.2 µM. For the same molecule, the Kd in experiment [13] came out at 1.5 µM; in experiment [14], 3.57 µM; in [15], 0.66 µM; in experiment [17] it was 0.96 µM; in [18], 0.45 µM; in experiment [19], 1.22 µM. The affinity in [20], expressed as Kd, was 1.54 µM.
Consider {FITC}-WLRRA[pS]APLPGLK [fluorescently labeled HSPB6 phosphopeptide (fpB6)], for which the Kd in experiment [21] is 5.27 µM; in experiment [14], 9.62 µM; in [15], 2.47 µM; in experiment [16], 1.95 µM; in experiment [17] it was 5.22 µM; in [18], 9 µM. Besides, the Kd in [19] was determined as 7.17 µM; in experiment [22], 6.53 µM; in experiment [20], 4.76 µM; in [23] it was 3.75 µM; in experiment [24], 4.4 µM.

For the origin of these results see article PMC7961048 (2021).
